Measured values: PMC5820281

Key:
[1] = molecular target: protein A/G (Ultralink protein A/G beads); assay: luciferase pull-down (protein A/G beads, luciferase-tagged Fc-IgG); details: read off a plot
[2] = molecular target: GST-Ro52-Δ2 (C-terminal fragment of Ro52/TRIM21 fused to glutathione S-transferase) (UniProt P19474); assay: luciferase pull-down (bead-immobilized GST fusion protein, luciferase-tagged Fc-IgG); details: read off a plot
[3] = molecular target: Renilla luciferase-IgG1 Fc fusion protein (Fc region of IgG1, amino acids 233–449); assay: as above; details: parent: est. 240000; read off a plot

UniProt P19474, sequence (P19474 277-475, stated change not applied): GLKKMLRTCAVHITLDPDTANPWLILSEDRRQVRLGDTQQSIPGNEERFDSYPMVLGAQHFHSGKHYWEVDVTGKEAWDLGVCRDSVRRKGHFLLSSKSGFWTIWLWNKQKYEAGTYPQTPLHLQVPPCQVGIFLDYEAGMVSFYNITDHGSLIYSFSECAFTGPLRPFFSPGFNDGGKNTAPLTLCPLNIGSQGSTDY

Row | response [3] | Substance | response [1] | response [2]
1 |  | Renilla luciferase-IgG1 Fc fusion protein (Fc region of IgG1, amino acids 233–449) H435del; N436del; H437del | 3600 LU | 4200 LU
2 | 3900 LU | GST-Ro52-Δ2 (C-terminal fragment of Ro52/TRIM21 fused to glutathione S-transferase) (from UniProt P19474) D355A |  | 
